T1: VEGF (UniProt P15692-9 27-147)
T1 construct: also called VEGF121
T1 sequence (looked up): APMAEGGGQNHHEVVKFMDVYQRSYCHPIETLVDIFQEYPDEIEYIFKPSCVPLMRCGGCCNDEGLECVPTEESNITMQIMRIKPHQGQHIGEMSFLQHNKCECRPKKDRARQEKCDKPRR

B1: bsAb from exchange reaction between anti-bio 2/3-IgG (MHCFcRP-knob-E357K) and anti-fluos 2/3-IgG (MHCFcRP-hole-K370E) (bispecific antibody)
heavy 1: not shown
light 1: DIQMTQSPSSLSASVGDRVTITCRASGNIHNYLSWYQQKPGKVPKLLIYSAKTLADGVPSRFSGSGSGTDFTLTISSLQPEDVATYYCQHFWSSIYTFGQGTKLEIKRTVAAPSVFIFPPSDEQLKSGTASVVCLLNNFYPREAKVQWKVDNALQSGNSQESVTEQDSKDSTYSLSSTLTLSKADYEKHKVYACEVTHQGLSSPVTKSFNRGEC
heavy 2: not shown
light 2: DIVMTQTPLSLSVTPGQPASISCKSSQSLVHSNGNTYLRWYLQKPGQSPKVLIYKVSNRVSGVPDRFSGSGSGTDFTLKISRVEAEDVGVYYCSQSTHVPWTFGQGTKLEIKRTVAAPSVFIFPPSDEQLKSGTASVVCLLNNFYPREAKVQWKVDNALQSGNSQESVTEQDSKDSTYSLSSTLTLSKADYEKHKVYACEVTHQGLSSPVTKSFNRGEC
notes: Exchange product as applied in the reaction mix; also called bio fluos
B2: bsAb from exchange reaction between anti-fluos 2/3-IgG (MHCFcRP-knob-E357K) and anti-dig 2/3-IgG (MHCFcRP-hole-K370E) (bispecific antibody, not shown: small tags and cut ends)
heavy 1: not shown
light 1: B1 light 2
heavy 2: QVQLVESGGGLVKPGGSLRLSCAASGFTFSDYAMSWIRQAPGKGLEWVSSINIGATYIYYADSVKGRFTISRDNAKNSLYLQMNSLRAEDTAVYYCARPGSPYEYDKAYYSMAYWGQGTTVTVSSASTKGPSVFPLAPSSKSTSGGTAALGCLVKDYFPEPVTVSWNSGALTSGVHTFPAVLQSSGLYSLSSVVTVPSSSLGTQTYICNVNHKPSNTKVDKKVEPKSC
light 2: not shown
notes: Exchange product as applied in the reaction mix; also called fluos dig
B3: bsAb from exchange reaction between anti-bio 2/3-IgG (MHCFcRP-knob-E357K) and anti-dig 2/3-IgG (MHCFcRP-hole-K370E) (bispecific antibody, not shown: small tags and cut ends)
heavy 1: not shown
light 1: B1 light 1
heavy 2: B2 heavy 2
light 2: not shown
notes: Exchange product as applied in the reaction mix; also called bio dig
B4: bsAb from exchange reaction between anti-dig 2/3-IgG (MHCFcRP-knob-E357K) and anti-fluos 2/3-IgG (MHCFcRP-hole-K370E) (bispecific antibody, not shown: small tags and cut ends)
heavy 1: B2 heavy 2
light 1: not shown
heavy 2: not shown
light 2: B1 light 2
notes: Exchange product as applied in the reaction mix; also called dig fluos
B5: bsAb from exchange reaction between anti-PDGF 2/3-IgG (MHCFcRP-knob-E357K) and anti-bio 2/3-IgG (MHCFcRP-hole-K370E) (bispecific antibody, not shown: small tags and cut ends)
heavy 1: EVQLVESGGGLVQPGGSLRLSCAASGFTFSSYWMSWVRQAPEKGLEWVSTISDGGGLTYYADSVKGRFTISRDNAKNSLYLQMNSLRAEDTAVYYCAESGGYTDWLFGYWGQGTLVTVSSASTKGPSVFPLAPSSKSTSGGTAALGCLVKDYFPEPVTVSWNSGALTSGVHTFPAVLQSSGLYSLSSVVTVPSSSLGTQTYICNVNHKPSNTKVDKKVEPKSC
light 1: not shown
heavy 2: not shown
light 2: B1 light 1
notes: Exchange product as applied in the reaction mix; also called PDGF bio
B6: bsAb from exchange reaction between anti-bio 2/3-IgG (MHCFcRP-knob-E357K) and anti-PDGF 2/3-IgG (MHCFcRP-hole-K370E) (bispecific antibody, not shown: small tags and cut ends)
heavy 1: not shown
light 1: B1 light 1
heavy 2: B5 heavy 1
light 2: not shown
notes: Exchange product as applied in the reaction mix; also called bio PDGF
B7: bsAb from exchange reaction between anti-dig 2/3-IgG (MHCFcRP-knob-E357K) and anti-bio 2/3-IgG (MHCFcRP-hole-K370E) (bispecific antibody, not shown: small tags and cut ends)
heavy 1: B2 heavy 2
light 1: not shown
heavy 2: not shown
light 2: B1 light 1
notes: Exchange product as applied in the reaction mix; also called dig bio
B8: bsAb from exchange reaction between anti-fluos 2/3-IgG (MHCFcRP-knob-E357K) and anti-bio 2/3-IgG (MHCFcRP-hole-K370E) (bispecific antibody)
heavy 1: not shown
light 1: B1 light 2
heavy 2: not shown
light 2: B1 light 1
notes: Exchange product as applied in the reaction mix; also called fluos bio
B9: bsAb from exchange reaction between anti-dig 2/3-IgG (MHCFcRP-knob-E357K) and anti-PDGF 2/3-IgG (MHCFcRP-hole-K370E) (bispecific antibody, not shown: small tags and cut ends)
heavy 1: B2 heavy 2
light 1: not shown
heavy 2: B5 heavy 1
light 2: not shown
notes: Exchange product as applied in the reaction mix; also called dig PDGF
B10: bsAb from exchange reaction between anti-PDGF 2/3-IgG (MHCFcRP-knob-E357K) and anti-dig 2/3-IgG (MHCFcRP-hole-K370E) (bispecific antibody, not shown: small tags and cut ends)
heavy 1: B5 heavy 1
light 1: not shown
heavy 2: B2 heavy 2
light 2: not shown
notes: Exchange product as applied in the reaction mix; also called PDGF dig

These binders were tested against T1, VEGF (assay: bridging ELISA, capture VEGF, detection biocytinamid-Cy5 or digoxygenin-Cy5).
B1: no binding (tested: 1.3 µM input molecule concentration).
B2: no binding (tested: 1.3 µM input molecule concentration).
B3: no binding (tested: 1.3 µM input molecule concentration).
B4: no binding (tested: 1.3 µM input molecule concentration).
B5: no binding (tested: 1.3 µM input molecule concentration).
B6: no binding (tested: 1.3 µM input molecule concentration).
B7: no binding (tested: 1.3 µM input molecule concentration).
B8: no binding (tested: 1.3 µM input molecule concentration).
B9: no binding (tested: 1.3 µM input molecule concentration).
B10: no binding (tested: 1.3 µM input molecule concentration).

Each binder was assayed against T1, VEGF (assay: bridging ELISA of exchange reaction mix: capture VEGF, detection digoxygenin-Cy5; signal needs both specificities; highest value = 100%, input 1.3 µM).
In the case of B1, the relative signal intensity is reported as 7.2%.
With B2 the relative signal intensity was 6.3%.
Binder B3 has a relative signal intensity of 6.2%.
For B4, the relative signal intensity was 6.7%.
B5 showed a relative signal intensity of 6%.
B6 gave a relative signal intensity of 6.1%.
B7 was tested, and the relative signal intensity was 6.2%.
B8 was tested, and the relative signal intensity was 6.5%.
With B9 the relative signal intensity was 7%.
In the case of B10, the relative signal intensity is reported as 5.9%.

The binders below were run against T1, VEGF (assay: bridging ELISA of exchange reaction mix: capture VEGF, detection biocytinamid-Cy5; signal needs both specificities; highest value = 100%, input 1.3 µM).
With B1 the relative signal intensity was 9%.
For B2, the relative signal intensity was 9.4%.
B3 gave a relative signal intensity of 9.3%.
B4 gave a relative signal intensity of 9.1%.
With B5 the relative signal intensity was 10.5%.
B6 was tested, and the relative signal intensity was 10.1%.
In the case of B7, the relative signal intensity is reported as 9%.
B8 was tested, and the relative signal intensity was 10.2%.
For B9, the relative signal intensity was 9.9%.
B10 showed a relative signal intensity of 9.2%.

Source: patent US20200255522A1 (published 2020)
